In a protein production outcome set (Wang et al. 2014):

Assay: label from the status in PepcDB records

Sequence | protein production
MTKSYDVWWQKGQESDDDMARDHQEAWERTIEMLDTSDIKGKTILDVGCNQGGFLRKLYDTTPFKEGVGIDLARLSLEKAETLKGERPLTYYLTDKPQETNRTFDTAVSTSVLYLIEDIPQHAQDLKEVLKPGGVYYASFADLTNNPSRQFMDDTINQYGATPSQNHSLKHIVDSFVDAGFEVAVMKEPVPDVIDLTHYSDFYLSPNDYLQTLYEESFLIKASVKEGIGKLEHHHHHH | not failed
MTKVLILGANGRIARIVEQRLLAETDVQLTLVLRNAGRLLVTSPERETVIQGDVSDSQLLDTVMPNQDIVYANLAGNMALLAQTIITSMNRNHVPHLIWVTGSGLYHETPNPFGAWVEQVVGHAAKNDTRHAARIIESSDIPATIIRAAYMTDDTKIDYELTYKGERFKGTMISRASIADLIMKIIAEPTAYENTSLGIAQPGTDNMLPQVKLMAQHR | failed
MTKYKVALFDLDNTLLKTEDASVAALTYALNQDGVEVTPQAIVELMGLPGIDMARELGSSNPAKTIDIFNERINQEVDLIKEYDGIDEMFAGLRELGIEYGIVTSKLRRVFDDEMRSFPKIRAIEKVVLSDDTKKHKPHADPIEFGMQKYFPKLNRADVIYVGDSLFDMQSAHAAGVDFANAGWGAIPANDFSEAEYILKTPTDLLEIV | failed
MTKYQETAKAILAAVGGEKNIQHVTHCVTRLRLVLDNDEIVNDQVIKTIPNVIGVMRKNDQYQIILGNDVNNYYNAFLALGHFENTTREFSSQKKSSILEKLIETIAGVITPLIPALLGGGMLKVIGILLPMLGIASSSSQTVAFINFFGDAAYYFMPIMIAYSAASRFKVTPVLAATVGGILLHPAFVTMVAEGKPLSLFGAPVTLASYGSSVIPILIMVFLMQYIERWINKIVPSVMKSFLQPTLIILISGFLALVVVGPLGVIIGKGLSSAMLSIYHVAPWLALSILGAIMPLVVMTGMHWAFAPIFLAASVATPDVLILPAMLASNLAQGAASLAVAVKAKQKQTRQVAFAAGLSALLAGITEPALYGVTLKFKKPLYAAMISGGLVGAYIGLVNIASYTFVVPSIIGLPQYINPQGGNNFSNAVIAAIATIILTFIITWFLGIDEGENEKSSINAQEHTHIRSGLSKKETLYSPMVGNVLPLSKVPDETFSSKLLGEGLAITPSVGEVYAPFDGEIISLFPTKHAIALKDDKGVEVLIHIGIDTVELNGEGFEQLVKVGDFVKRGQLLLRMDIDFISSKGYSLISPVVVTNSIDQLEIIVKDAETMVTNEDDLLVIL | failed
MTLAARETAALDSVPEPPLADQLRAMDHLDALEAQSIYILREAFARLKKLALLWSLGKDSNVMIWLARKAFFGRVPFPALHVDTGKKFPEMYAFRDIYAKEWDLDLRVDPCPPIDSVDPTLPPAARSAARKTEGLKLALAKYGFDGLIAGIRRDEEATRAKERVFSPRGVEGGWDVRDQPAEFWDQFNASPPPGAHLRIHPILHWTEADIWAYTKREGIPIIPLYLSQNGKRYRSLGDQDITFPVNSNAASIDEILLELETTKVPERAGRALDHETEDAFERLRVAGYL | failed
MTLAPPPMPPSDAPAAESAGATLRLVIADALVVILTFIVMFLGVGQLSAEAGLSAVQTAVMTLLTVAAPAQAAAMQIMTSDGATSGVWVAAMVAVIIVNLRFMVMVASILGRLPQAGFLRGTAAVGLVSASSFAIILPRLMSAPPARPLLYCALVGVSCSISAVIGALLGHQLAASVPALVGAALGAMIPIYFATLIARQGKHKALIANALAGAVLVPLAAPLLGSLSLLIVPLGISALSLMIGKGTPANG | failed
MTLATRSMQPHAVSPGQARSWPLPAAGWLLLAVGVWLAFLSWMRPLALPDEGRYAGVAWDMLRNGSFAVPLIDGMPYFHKPPLYYWLAELSFRLFGVNEWAVRLPSALAAWASAVALYLFVRRHRDAASATLCVLVLATLPLFFGGAQYANMDMLVAGMITLCVLAGADTALRVRGGQAWRAMALATGVCAALAMLAKGLIGLVLPGAILLAWLAWRRDWRGLRALLWPPAILAFAVVAVPWFWLMQVRYPGFFQYFFVHQHFERFAQTGFNNVQPFWFYLPVIAGLALPWSLWAGGLLRKQFWAADADPDGLRRLALVWLAVIVAFFSMPQSKLVGYIMPVLPPLAFLLAEVVMGALRDPAVARATRRMARVSALVAVAICVTAVFVASFNARGSSRELALSLRGELRPDDTLVALHTYPFDLQLYAHAARPMWVVDDWSNPEIPKRDNWRRELYDAVQFEPALGERLLVSADTFQQRLCQAPEGSRYWVWGTAADEEAYAPLRGQAARFADARRSLWLVLVDEAFKGRVCDGTPTGG | failed
MTLDTAAGHPTMDFADRCPLPYTSPTHLQAVAYLHGIVAADPDRARVLELGCMSGANLLPFATAYPQAQAVGIDLDEEKIAQGQMWVQQYGLTNLQLQAMDLGSLLDSDLGKFDYIIVHGVFGLISGEARSALLAYCHRHLSAKGVVCFSYSTYPGGKTEEILQDALNLHASLAETPEQQQASARAMLSYLSLGMSADNPQRAAITTLVEEAEKLGDVSLALNYLQGLNQPCYLLDFNALIAQEGLSYVGEIEPHTEIASHYGEQVDSLLRAICPTGNKVLKQQYLDFNVGRKRRFSLLVATERAGKLESEIDISRLDKLSWAGSFRRVMLNKGLASNAHVTNAGIQISTDHELTQQILDVLGNAWPASVSFKQLIFNTHFPEKENDKQEHENNIRESLYALLKQGISSIHFCVGECAYRKSEFSALRALPNCGDIYPTFNYWYESFTLPSEALGLKIPMSLLEEQKEGSLALLDELHHKGLMIGSALAWQRYFQKRLELAKDVNDVIHSINPLIMYSSNASGGGLFKASDVIKVEKSRKEFVNDPIDAKFKGQLYDLLQKQKYDEARSLAEELTVKQPNNLQNWIALERINFVTGDKDAAIFSLAKVISMHSNAWLVYSELASLLHNTYNYWEAINLAYRVIRCDGNIAVAWNVVALVYLKFENMAGAEVCIEKAMKLLPNDAAILNAMAMVLDKKSDVESAIEYYRQAVSNAPEDLSLYSNLLFALLHNAKIPASEIFAEHLLYGDVVEKRNGALAPVRYLQNKDPDRVLRIGFVSGDLYSHPVSKFLSPVWNDIDHQHFSLYAYSTSHHHDDVTRMLEKNSTVWRNVASSSDTELFDLIKRDEIDILFDLSGHTGDNRLSMFAMKPAPIQISWIGYPGTTGLKAMDYYLVMNHAPYPEVLAHQFTEKLLYVLFDRQFEPVVNGPEVNDLPALTNGYLTFASFNRPTKINDTVLSAWGKILVQLPTSKMIIGALPSLQTRDLIRKKLESQGVQPEQLIFRERVNIMNYLAMHQEIDVLLDTFPYTGGTTTNYALWMGVPTLTLAGETYAARQGVVNLGQAGLNEFIAHSEADYIDKAISCNNRLDELNQIRHSLRKKMEYDIDTSDATAATYFEQALRTVWKAYCDGQPPKSYSIGH | failed
MTLETAFMLPVQDAQHSFRRLLKAMSEPGVIVALHQLKRGWQPLNIATTSVLLTLADNDTPVWLSTPLNNDIVNQSLRFHTNAPLVSQPEQATFAVTDEAISSEQLNALSTGTAVAPEAGATLILQVASLSGGRMLRLTGAGIAEERMIAPQLPECILHELTERPHPFPLGIDLILTCGERLLAIPRTTHVEVC | not failed
MTLFTLLLTLAWERLFKQGEHWQIDHRLEVIFRHVSPPSLFQTLFLTLCSMGVVAALLWLTSGILFGLISLLLWIVISLMCIGAGEIRQHYRRYLQAAQRGESDASREMAAELALIHGLPVGTSESEQLKELQNALLWINFRFYLAPLFWFVVAGPYGPVTLMGYAFLRARQTWLARHHTPLERAQSGVDSLLHWLDWIPARLAGAAYALLGHGEKALPAWFASLGDSRSSQYWVLTQLAQFSLARESHIEPVETPKAAVTLAKKVTLVLVVVVALLTIYGALV | failed
MTLHNEIKQLIIDCLDLEDVSIDDIETDAPLFGDGLGLDSIDALELGLAIKKKFDVKIEANSDSTKAHFYSVASLAKFIESQRP | failed
MTLLWGLLSGMAVIGGLIGVVAGLVGTTAPRRAPLQQRWQALRAGKDQGEDVRLRRRTLAALAVVVFVAVWLVSGNFVGGALLGVAVVGVPWLISPAQMAQERIGQLEALSEWTQRLAGLLRLGMGLEQAMITSRQGAPDELAPQIVNLSDRLRLGWRPDGALRAFAEELNDVTADKVVAALILSVNDRGPGLAQALEDLAGTVRDEVAKKRAIEADRAKPRTTVRWMTVITVGVVVAGFFVPSYTKPYSTLLGQLVLAFLTVGFIGVLALMRQLGAFRRIPRFLITDPSSTVRLPLAGDGAGRAGRWP | failed
MTLNITSKQMDITPAIREHLEERLAKLGKWQTQLISPHFVLNKVPNGFSVEASIGTPLGNLLASATSDDMYKAINEVEEKLERQLNKLQHKSESRRADERLKDSFEN | not failed
MTLPPYHTPLPAETLRALSIPAPWTFGLADRVRFGELDAIGHVNHTAYLRWYESFRLPFLKARHVTDYGPTSPRLVLKQVHCTYLAEMGMGEDYVITGRVSNFRTTSFTMEFACWRLGDAVECTSEGSAVVVLLNRDGSGRYPIPEAGRASFVTEDGVLAAG | not failed
MTLPRLILPLLIAAACALGGCAYNPDLGRDQLLIVNDNNLARDGEKAWADALRTSHVSKEPRKNARVQAVGQRVIVAAGLAGRPWEYAVFLEEAPNAFVLPGGYVGVTVGLLSLVENDDQLAAVIGHEAGHVVARHAAERVSQETTSKVLLGIAKAAAGGTEFGKLLKDHGEDATRYGLLLPFSRKQELEADKLGVDFMQRAGYRPREAVKLWRNMQALDGGKSGGDLGSTHPSDAVRIQELERYLASKGWLEHHHHHH | failed
MTLPRRSGIRALPARGPTMESILGSFLLVAASEMGDKTQLLAFSLATRFRKPWPIMAGILVATLANHGLASSLGAWISANVPARMLAGVLALTFLMFGLWTLRPDSLEASKGPERFGAFLTTTVLFFLAEMGDKTQLATVALAARYGDVIRVTAGTTLGMLAADGLAVFLGEKLAARVSSARIRWAAAGLFFLFGLISAWAAIFG | failed
MTLPSTPMPPAGSRKILLDDFQHVGSESHLGQCVNRSWTRHNCGHLENASIICTSEGMALSPHLDGNRQPSNLDNLREKAFLYQRHQHLLKFHHQLPAAGACMEVRLLNGTGRCLGRVEVLIQGTWGTVCDHFWNLAEAAVVCRQLQCGQAMAAHFGASSGKVLLDDMQCVGSKSHLGRCVHRGWARHNCGHLEDASVICAGEGLVVNLHLEGCF | failed
MTLQETLNSEYQISFEEAQATAKIVDDLAEAEQKLKNLERQIKALGPINLDAIAQFDEVNERFTFLSSQKDDLLEAKNLLLSTIDDMNDEVKIRFKTSFDAIRESFKTTFAQMFVSGLADLELTSDNLLEAGVEIKVQPPGKKLSSLNLMSGGEKALTALALIFAILRVRTVPFVVLDEVEAALDEANVKRFGDYMNHFDNSNQFIVVTHRRGTMAAAGSMYGVTMADAGVSKMISVKLDSAIN | failed
MTLSGGGSASDMSGQTVLTAEDVDIDVVGEGDDGLEEKDSDAGCDSPAGPPELRLDEADEVPPAAPHHGQPQPPHQQPLTLPKEAAGAGAGPGGDVGAPEADGCKGGVGGEEGGASGGGPGAGSGSAGGLAPSKPKNSLVKPPYSYIALITMAILQSPQKKLTLSGICEFISNRFPYYREKFPAWQNSIRHNLSLNDCFVKIPREPGNPGKGNYWTLDPQSEDMFDNGSFLRRRKRFKRHQQEHLREQTALMMQSFGAYSLAAAAGAAGPYGRPYGLHPAAAAGAYSHPAAAAAAAAAAALQYPYALPPVAPVLPPAVPLLPSGELGRKAAAFGSQLGPGLQLQLNSLGAAAAAAGTAGAAGTTASLIKSEPSARPSFSIENIIGGGPAAPGGSAVGAGVAGGTGGSGGGSTAQSFLRPPGTVQSAALMATHQPLSLSRTTATIAPILSVPLSGQFLQPAASAAAAAAAAAQAKWPAQ | failed
